# Results reported in PMC3464228.
# Target: purified human fibrinogen (human) (UniProt P02671)
# UniProt P02671, sequence (P02671 36-866, chain 1 of 3): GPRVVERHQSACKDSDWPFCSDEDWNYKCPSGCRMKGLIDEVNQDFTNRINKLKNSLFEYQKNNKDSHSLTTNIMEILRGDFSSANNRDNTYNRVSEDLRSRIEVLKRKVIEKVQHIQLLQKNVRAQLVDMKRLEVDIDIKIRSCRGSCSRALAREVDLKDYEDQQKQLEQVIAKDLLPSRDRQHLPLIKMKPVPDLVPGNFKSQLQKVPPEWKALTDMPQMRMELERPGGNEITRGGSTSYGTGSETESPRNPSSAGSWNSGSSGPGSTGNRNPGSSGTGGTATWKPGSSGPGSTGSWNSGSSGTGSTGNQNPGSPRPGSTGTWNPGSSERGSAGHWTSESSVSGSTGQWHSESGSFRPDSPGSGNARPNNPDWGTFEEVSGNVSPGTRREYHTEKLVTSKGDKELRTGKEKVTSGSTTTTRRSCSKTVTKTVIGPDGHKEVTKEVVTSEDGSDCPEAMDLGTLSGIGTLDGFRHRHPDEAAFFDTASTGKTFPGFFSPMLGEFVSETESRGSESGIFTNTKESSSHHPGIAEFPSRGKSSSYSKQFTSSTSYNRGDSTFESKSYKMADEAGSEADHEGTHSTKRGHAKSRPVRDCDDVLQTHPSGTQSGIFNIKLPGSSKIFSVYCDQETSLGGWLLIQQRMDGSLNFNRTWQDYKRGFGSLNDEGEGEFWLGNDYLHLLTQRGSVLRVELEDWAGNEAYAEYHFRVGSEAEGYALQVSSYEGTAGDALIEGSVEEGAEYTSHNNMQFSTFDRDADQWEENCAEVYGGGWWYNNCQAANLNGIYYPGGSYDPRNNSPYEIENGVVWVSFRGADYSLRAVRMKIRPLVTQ
# UniProt P02671, sequence (P02675 45-491, chain 2 of 3, further chain): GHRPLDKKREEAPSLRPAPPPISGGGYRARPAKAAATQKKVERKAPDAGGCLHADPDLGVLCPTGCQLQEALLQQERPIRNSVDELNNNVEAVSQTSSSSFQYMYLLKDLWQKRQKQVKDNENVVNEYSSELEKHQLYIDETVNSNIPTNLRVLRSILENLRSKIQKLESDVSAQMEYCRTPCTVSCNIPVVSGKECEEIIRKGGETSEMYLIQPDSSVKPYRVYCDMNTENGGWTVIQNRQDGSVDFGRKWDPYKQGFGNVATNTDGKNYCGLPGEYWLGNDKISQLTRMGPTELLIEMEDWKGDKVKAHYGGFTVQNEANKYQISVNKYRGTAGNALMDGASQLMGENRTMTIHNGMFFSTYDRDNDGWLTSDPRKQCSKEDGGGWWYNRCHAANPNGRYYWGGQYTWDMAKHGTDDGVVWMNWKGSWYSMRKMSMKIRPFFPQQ
# UniProt P02671, sequence (P02679 27-453, chain 3 of 3, further chain): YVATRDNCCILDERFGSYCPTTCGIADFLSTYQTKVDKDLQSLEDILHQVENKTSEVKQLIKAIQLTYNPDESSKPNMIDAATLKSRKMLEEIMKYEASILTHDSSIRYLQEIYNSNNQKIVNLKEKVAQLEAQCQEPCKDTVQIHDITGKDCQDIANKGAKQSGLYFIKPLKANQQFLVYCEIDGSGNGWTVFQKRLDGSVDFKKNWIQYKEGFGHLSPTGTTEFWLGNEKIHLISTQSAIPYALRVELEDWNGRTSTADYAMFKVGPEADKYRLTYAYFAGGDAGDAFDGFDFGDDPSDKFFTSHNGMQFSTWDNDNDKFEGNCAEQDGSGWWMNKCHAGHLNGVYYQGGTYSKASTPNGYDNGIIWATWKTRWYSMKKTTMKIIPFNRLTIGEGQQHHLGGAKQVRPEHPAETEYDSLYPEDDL
substance,measurement,value
"serine-rich repeat glycoprotein Srr1 of Streptococcus agalactiae (native, surface expressed) (natural protein)","adherence of GBS strain COH31 to immobilized human fibrinogen (0.1 µM per well), percent of inoculum bound (% of inoculum)",16
